# Reference: patent US20240270846A1 (published 2024)
# Target: T1, CD3 epsilon homodimer protein (UniProt P07766 23-126)
# T1 construct: construct not described; homodimer as printed; also called CD3 (CD3 epsilon)
# Assay: SPR Biacore T200, CD3 epsilon homodimer immobilized; vs unaltered GLS3000;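 note: antibody variants flowed as analyte over CD3 epsilon homodimer amine-coupled to a CM4 chip, at 25 °C in HBS-EP+ running buffer, fitted with Biacore T200 Evaluation Software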
# T1 sequence (P07766 23-126): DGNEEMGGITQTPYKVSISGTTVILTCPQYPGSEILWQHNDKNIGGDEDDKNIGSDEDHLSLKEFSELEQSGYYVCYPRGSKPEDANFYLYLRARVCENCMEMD
row,Binder,KD ratio to GLS3000 (Affinity up)
1,"GLS3000 R24S (Kabat) L chain altered form, one-arm antibody with CE115HA000 (antibody, human IgG1, kappa, L234A L235A, N297A, name in Kabat numbering, one-arm antibody) heavy: QVQLVESGGGVVQPGRSLRLSCAASGFTFSNAWMHWVRQAPGKGLEWVAQIKAKSNNYATYYAESVKGRFTISRDDSKNSLYLQMNSLKTEDTAVYYCRYVHYGAYYGVDAWGQGTTVTVSSASTKGPSVFPLAPSSKSTSGGTAALGCLVKDYFPEPVTVSWNSGALTSGVHTFPAVLQSSGLYSLSSVVTVPSSSLGTQTYICNVNHKPSNTKVDKKVEPKSCDKTHTCPPCPAPEAAGGPSVFLFPPKPKDTLMISRTPEVTCVVVDVSHEDPEVKFNWYVDGVEVHNAKTKPREEQYASTYRVVSVLTVLHQDWLNGKEYKCKVSNKALPAPIEKTISKAKGQPREPQVYTLPPSRCELTKNQVSLSCAVKGFYPSDIAVEWESNGQPENNYKTTPPVLDSDGSFFLVSKLTVDKSRWQQGNVFSCSVMHEALHNHYTQKSLSLSPDYKDDDDK EPKSSDKTHTCPPCPAPELLGGPSVFLFPPKPKDTLMISRTPEVTCVVVDVSHEDPEVKFNWYVDGVEVHNAKTKPREEQYNSTYRVVSVLTVLHQDWLNGKEYKCKVSNKALPAPIEKTISKAKGQPREPQVCTLPPSRDELTKNQVSLWCLVKGFYPSDIAVEWESNGQPENNYKTTPPVLDSDGSFFLYSKLTVDKSRWQQGNVFSCSVMHEALHNRYTQKSLSLSP light: DIVMTQSPLSLPVTPGEPASISCSSSQSLVHSNRNTYLHWYQQKPGQAPRLLIYKVSNRFSGVPDRFSGSGSGTDFTLKISRVEAEDVGVYYCGQGTQVPYTFGQGTKLEIKRTVAAPSVFIFPPSDEQLKSGTASVVCLLNNFYPREAKVQWKVDNALQSGNSQESVTEQDSKDSTYSLSSTLTLSKADYEKHKVYACEVTHQGLSSPVTKSFNRGEC",0.97
2,"GLS3000 R24T (Kabat) L chain altered form, one-arm antibody with CE115HA000 (antibody, human IgG1, kappa, L234A L235A, N297A, name in Kabat numbering, one-arm antibody) heavy: QVQLVESGGGVVQPGRSLRLSCAASGFTFSNAWMHWVRQAPGKGLEWVAQIKAKSNNYATYYAESVKGRFTISRDDSKNSLYLQMNSLKTEDTAVYYCRYVHYGAYYGVDAWGQGTTVTVSSASTKGPSVFPLAPSSKSTSGGTAALGCLVKDYFPEPVTVSWNSGALTSGVHTFPAVLQSSGLYSLSSVVTVPSSSLGTQTYICNVNHKPSNTKVDKKVEPKSCDKTHTCPPCPAPEAAGGPSVFLFPPKPKDTLMISRTPEVTCVVVDVSHEDPEVKFNWYVDGVEVHNAKTKPREEQYASTYRVVSVLTVLHQDWLNGKEYKCKVSNKALPAPIEKTISKAKGQPREPQVYTLPPSRCELTKNQVSLSCAVKGFYPSDIAVEWESNGQPENNYKTTPPVLDSDGSFFLVSKLTVDKSRWQQGNVFSCSVMHEALHNHYTQKSLSLSPDYKDDDDK EPKSSDKTHTCPPCPAPELLGGPSVFLFPPKPKDTLMISRTPEVTCVVVDVSHEDPEVKFNWYVDGVEVHNAKTKPREEQYNSTYRVVSVLTVLHQDWLNGKEYKCKVSNKALPAPIEKTISKAKGQPREPQVCTLPPSRDELTKNQVSLWCLVKGFYPSDIAVEWESNGQPENNYKTTPPVLDSDGSFFLYSKLTVDKSRWQQGNVFSCSVMHEALHNRYTQKSLSLSP light: DIVMTQSPLSLPVTPGEPASISCTSSQSLVHSNRNTYLHWYQQKPGQAPRLLIYKVSNRFSGVPDRFSGSGSGTDFTLKISRVEAEDVGVYYCGQGTQVPYTFGQGTKLEIKRTVAAPSVFIFPPSDEQLKSGTASVVCLLNNFYPREAKVQWKVDNALQSGNSQESVTEQDSKDSTYSLSSTLTLSKADYEKHKVYACEVTHQGLSSPVTKSFNRGEC",1.03
3,"GLS3000 R29A (Kabat) L chain altered form, one-arm antibody with CE115HA000 (antibody, human IgG1, kappa, L234A L235A, N297A, name in Kabat numbering, one-arm antibody) heavy: QVQLVESGGGVVQPGRSLRLSCAASGFTFSNAWMHWVRQAPGKGLEWVAQIKAKSNNYATYYAESVKGRFTISRDDSKNSLYLQMNSLKTEDTAVYYCRYVHYGAYYGVDAWGQGTTVTVSSASTKGPSVFPLAPSSKSTSGGTAALGCLVKDYFPEPVTVSWNSGALTSGVHTFPAVLQSSGLYSLSSVVTVPSSSLGTQTYICNVNHKPSNTKVDKKVEPKSCDKTHTCPPCPAPEAAGGPSVFLFPPKPKDTLMISRTPEVTCVVVDVSHEDPEVKFNWYVDGVEVHNAKTKPREEQYASTYRVVSVLTVLHQDWLNGKEYKCKVSNKALPAPIEKTISKAKGQPREPQVYTLPPSRCELTKNQVSLSCAVKGFYPSDIAVEWESNGQPENNYKTTPPVLDSDGSFFLVSKLTVDKSRWQQGNVFSCSVMHEALHNHYTQKSLSLSPDYKDDDDK EPKSSDKTHTCPPCPAPELLGGPSVFLFPPKPKDTLMISRTPEVTCVVVDVSHEDPEVKFNWYVDGVEVHNAKTKPREEQYNSTYRVVSVLTVLHQDWLNGKEYKCKVSNKALPAPIEKTISKAKGQPREPQVCTLPPSRDELTKNQVSLWCLVKGFYPSDIAVEWESNGQPENNYKTTPPVLDSDGSFFLYSKLTVDKSRWQQGNVFSCSVMHEALHNRYTQKSLSLSP light: DIVMTQSPLSLPVTPGEPASISCRSSQSLVHSNANTYLHWYQQKPGQAPRLLIYKVSNRFSGVPDRFSGSGSGTDFTLKISRVEAEDVGVYYCGQGTQVPYTFGQGTKLEIKRTVAAPSVFIFPPSDEQLKSGTASVVCLLNNFYPREAKVQWKVDNALQSGNSQESVTEQDSKDSTYSLSSTLTLSKADYEKHKVYACEVTHQGLSSPVTKSFNRGEC",1.15
4,"GLS3000 R24Y (Kabat) L chain altered form, one-arm antibody with CE115HA000 (antibody, human IgG1, kappa, L234A L235A, N297A, name in Kabat numbering, one-arm antibody) heavy: QVQLVESGGGVVQPGRSLRLSCAASGFTFSNAWMHWVRQAPGKGLEWVAQIKAKSNNYATYYAESVKGRFTISRDDSKNSLYLQMNSLKTEDTAVYYCRYVHYGAYYGVDAWGQGTTVTVSSASTKGPSVFPLAPSSKSTSGGTAALGCLVKDYFPEPVTVSWNSGALTSGVHTFPAVLQSSGLYSLSSVVTVPSSSLGTQTYICNVNHKPSNTKVDKKVEPKSCDKTHTCPPCPAPEAAGGPSVFLFPPKPKDTLMISRTPEVTCVVVDVSHEDPEVKFNWYVDGVEVHNAKTKPREEQYASTYRVVSVLTVLHQDWLNGKEYKCKVSNKALPAPIEKTISKAKGQPREPQVYTLPPSRCELTKNQVSLSCAVKGFYPSDIAVEWESNGQPENNYKTTPPVLDSDGSFFLVSKLTVDKSRWQQGNVFSCSVMHEALHNHYTQKSLSLSPDYKDDDDK EPKSSDKTHTCPPCPAPELLGGPSVFLFPPKPKDTLMISRTPEVTCVVVDVSHEDPEVKFNWYVDGVEVHNAKTKPREEQYNSTYRVVSVLTVLHQDWLNGKEYKCKVSNKALPAPIEKTISKAKGQPREPQVCTLPPSRDELTKNQVSLWCLVKGFYPSDIAVEWESNGQPENNYKTTPPVLDSDGSFFLYSKLTVDKSRWQQGNVFSCSVMHEALHNRYTQKSLSLSP light: DIVMTQSPLSLPVTPGEPASISCYSSQSLVHSNRNTYLHWYQQKPGQAPRLLIYKVSNRFSGVPDRFSGSGSGTDFTLKISRVEAEDVGVYYCGQGTQVPYTFGQGTKLEIKRTVAAPSVFIFPPSDEQLKSGTASVVCLLNNFYPREAKVQWKVDNALQSGNSQESVTEQDSKDSTYSLSSTLTLSKADYEKHKVYACEVTHQGLSSPVTKSFNRGEC",0.94

# Results, then the binder that gave them:
row,KD ratio to GLS3000 (Affinity up),Binder
1,0.62,"GLS3000 R29G (Kabat) L chain altered form, one-arm antibody with CE115HA000 (antibody, human IgG1, kappa, L234A L235A, N297A, name in Kabat numbering, one-arm antibody) heavy: QVQLVESGGGVVQPGRSLRLSCAASGFTFSNAWMHWVRQAPGKGLEWVAQIKAKSNNYATYYAESVKGRFTISRDDSKNSLYLQMNSLKTEDTAVYYCRYVHYGAYYGVDAWGQGTTVTVSSASTKGPSVFPLAPSSKSTSGGTAALGCLVKDYFPEPVTVSWNSGALTSGVHTFPAVLQSSGLYSLSSVVTVPSSSLGTQTYICNVNHKPSNTKVDKKVEPKSCDKTHTCPPCPAPEAAGGPSVFLFPPKPKDTLMISRTPEVTCVVVDVSHEDPEVKFNWYVDGVEVHNAKTKPREEQYASTYRVVSVLTVLHQDWLNGKEYKCKVSNKALPAPIEKTISKAKGQPREPQVYTLPPSRCELTKNQVSLSCAVKGFYPSDIAVEWESNGQPENNYKTTPPVLDSDGSFFLVSKLTVDKSRWQQGNVFSCSVMHEALHNHYTQKSLSLSPDYKDDDDK EPKSSDKTHTCPPCPAPELLGGPSVFLFPPKPKDTLMISRTPEVTCVVVDVSHEDPEVKFNWYVDGVEVHNAKTKPREEQYNSTYRVVSVLTVLHQDWLNGKEYKCKVSNKALPAPIEKTISKAKGQPREPQVCTLPPSRDELTKNQVSLWCLVKGFYPSDIAVEWESNGQPENNYKTTPPVLDSDGSFFLYSKLTVDKSRWQQGNVFSCSVMHEALHNRYTQKSLSLSP light: DIVMTQSPLSLPVTPGEPASISCRSSQSLVHSNGNTYLHWYQQKPGQAPRLLIYKVSNRFSGVPDRFSGSGSGTDFTLKISRVEAEDVGVYYCGQGTQVPYTFGQGTKLEIKRTVAAPSVFIFPPSDEQLKSGTASVVCLLNNFYPREAKVQWKVDNALQSGNSQESVTEQDSKDSTYSLSSTLTLSKADYEKHKVYACEVTHQGLSSPVTKSFNRGEC"
2,1.58,"GLS3000 R29D (Kabat) L chain altered form, one-arm antibody with CE115HA000 (antibody, human IgG1, kappa, L234A L235A, N297A, name in Kabat numbering, one-arm antibody) heavy: QVQLVESGGGVVQPGRSLRLSCAASGFTFSNAWMHWVRQAPGKGLEWVAQIKAKSNNYATYYAESVKGRFTISRDDSKNSLYLQMNSLKTEDTAVYYCRYVHYGAYYGVDAWGQGTTVTVSSASTKGPSVFPLAPSSKSTSGGTAALGCLVKDYFPEPVTVSWNSGALTSGVHTFPAVLQSSGLYSLSSVVTVPSSSLGTQTYICNVNHKPSNTKVDKKVEPKSCDKTHTCPPCPAPEAAGGPSVFLFPPKPKDTLMISRTPEVTCVVVDVSHEDPEVKFNWYVDGVEVHNAKTKPREEQYASTYRVVSVLTVLHQDWLNGKEYKCKVSNKALPAPIEKTISKAKGQPREPQVYTLPPSRCELTKNQVSLSCAVKGFYPSDIAVEWESNGQPENNYKTTPPVLDSDGSFFLVSKLTVDKSRWQQGNVFSCSVMHEALHNHYTQKSLSLSPDYKDDDDK EPKSSDKTHTCPPCPAPELLGGPSVFLFPPKPKDTLMISRTPEVTCVVVDVSHEDPEVKFNWYVDGVEVHNAKTKPREEQYNSTYRVVSVLTVLHQDWLNGKEYKCKVSNKALPAPIEKTISKAKGQPREPQVCTLPPSRDELTKNQVSLWCLVKGFYPSDIAVEWESNGQPENNYKTTPPVLDSDGSFFLYSKLTVDKSRWQQGNVFSCSVMHEALHNRYTQKSLSLSP light: DIVMTQSPLSLPVTPGEPASISCRSSQSLVHSNDNTYLHWYQQKPGQAPRLLIYKVSNRFSGVPDRFSGSGSGTDFTLKISRVEAEDVGVYYCGQGTQVPYTFGQGTKLEIKRTVAAPSVFIFPPSDEQLKSGTASVVCLLNNFYPREAKVQWKVDNALQSGNSQESVTEQDSKDSTYSLSSTLTLSKADYEKHKVYACEVTHQGLSSPVTKSFNRGEC"
